Results as given in paper PMC6018924, “Brassinosteroids regulate pavement cell growth by mediating BIN2-induced microtubule stabilization” (Journal of Experimental Botany, 2018).

Key:
Assay in all cases: pull-down; GST fusion bound to GST resin in 1× PBS pH 7.4, 0.1% Triton X-100, 2 h at 4 °C; incubated with purified tubulin-His 2 h at 4 °C; western blot with anti-His antibody
Settings in all cases: both partners purified
TUB8–His = target: T1, TUB8–His (Arabidopsis, UniProt P29516 1-449)
T1 construct: β-tubulin TUB8 of Arabidopsis, gene cloned into pET28a; also called tubulin–His; source: E. coli (Rosetta strain), purified using Ni-NTA agarose

TUA1–His = target: T2, TUA1–His (Arabidopsis, UniProt P11139 1-450)
T2 construct: α-tubulin TUA1 of Arabidopsis, gene cloned into pET28a; also called tubulin–His; source: E. coli (Rosetta strain), purified using Ni-NTA agarose

TUB6–His = target: T3, TUB6–His (Arabidopsis, UniProt P29514 1-449)
T3 construct: β-tubulin TUB6 of Arabidopsis, gene cloned into pET28a; also called tubulin–His; source: E. coli (Rosetta strain), purified using Ni-NTA agarose

TUB7–His = target: T4, TUB7–His (Arabidopsis, UniProt P29515 1-449)
T4 construct: β-tubulin TUB7 of Arabidopsis, gene cloned into pET28a; also called tubulin–His; source: E. coli (Rosetta strain), purified using Ni-NTA agarose

TUB3–His = target: T5, TUB3–His (Arabidopsis, UniProt Q9ASR0 1-450)
T5 construct: β-tubulin TUB3 of Arabidopsis, gene cloned into pET28a; also called tubulin–His; source: E. coli (Rosetta strain), purified using Ni-NTA agarose

TUA5–His = target: T6, TUA5–His (Arabidopsis, UniProt B9DHQ0 1-450)
T6 construct: α-tubulin TUA5 of Arabidopsis, gene cloned into pET28a; also called tubulin–His; source: E. coli (Rosetta strain), purified using Ni-NTA agarose

TUA3–His = target: T7, TUA3–His (Arabidopsis, UniProt Q56WH1 1-450)
T7 construct: α-tubulin TUA3 of Arabidopsis, gene cloned into pET28a; also called tubulin–His; source: E. coli (Rosetta strain), purified using Ni-NTA agarose

TUB4–His = target: T8, TUB4–His (Arabidopsis, UniProt P24636 1-444)
T8 construct: β-tubulin TUB4 of Arabidopsis, gene cloned into pET28a; also called tubulin–His; source: E. coli (Rosetta strain), purified using Ni-NTA agarose

Measured: binding result

T3 sequence (P29514 whole entry): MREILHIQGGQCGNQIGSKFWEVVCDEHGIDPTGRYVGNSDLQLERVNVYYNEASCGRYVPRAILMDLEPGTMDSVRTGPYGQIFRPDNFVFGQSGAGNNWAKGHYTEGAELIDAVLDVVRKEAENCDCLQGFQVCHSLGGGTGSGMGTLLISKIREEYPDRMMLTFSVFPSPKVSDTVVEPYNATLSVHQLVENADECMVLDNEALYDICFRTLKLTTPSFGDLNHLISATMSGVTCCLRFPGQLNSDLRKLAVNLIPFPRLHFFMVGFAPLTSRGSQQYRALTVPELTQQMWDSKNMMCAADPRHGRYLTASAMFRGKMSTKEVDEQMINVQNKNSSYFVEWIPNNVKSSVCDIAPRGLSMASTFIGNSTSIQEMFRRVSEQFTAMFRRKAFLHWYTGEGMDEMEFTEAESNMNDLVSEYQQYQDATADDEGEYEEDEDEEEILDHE
T5 sequence (Q9ASR0 whole entry): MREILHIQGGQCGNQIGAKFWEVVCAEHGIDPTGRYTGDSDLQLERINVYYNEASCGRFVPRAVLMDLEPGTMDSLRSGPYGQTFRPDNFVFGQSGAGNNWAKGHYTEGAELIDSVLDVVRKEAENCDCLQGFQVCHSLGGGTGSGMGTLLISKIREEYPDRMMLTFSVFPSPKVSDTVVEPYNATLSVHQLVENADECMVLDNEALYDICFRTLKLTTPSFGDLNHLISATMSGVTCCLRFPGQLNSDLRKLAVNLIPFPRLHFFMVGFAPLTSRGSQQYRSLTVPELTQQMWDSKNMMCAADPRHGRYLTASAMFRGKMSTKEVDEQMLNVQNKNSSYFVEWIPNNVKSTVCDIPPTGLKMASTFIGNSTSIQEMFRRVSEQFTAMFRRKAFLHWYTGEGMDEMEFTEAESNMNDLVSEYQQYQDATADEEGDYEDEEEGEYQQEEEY
T6 sequence (B9DHQ0 whole entry): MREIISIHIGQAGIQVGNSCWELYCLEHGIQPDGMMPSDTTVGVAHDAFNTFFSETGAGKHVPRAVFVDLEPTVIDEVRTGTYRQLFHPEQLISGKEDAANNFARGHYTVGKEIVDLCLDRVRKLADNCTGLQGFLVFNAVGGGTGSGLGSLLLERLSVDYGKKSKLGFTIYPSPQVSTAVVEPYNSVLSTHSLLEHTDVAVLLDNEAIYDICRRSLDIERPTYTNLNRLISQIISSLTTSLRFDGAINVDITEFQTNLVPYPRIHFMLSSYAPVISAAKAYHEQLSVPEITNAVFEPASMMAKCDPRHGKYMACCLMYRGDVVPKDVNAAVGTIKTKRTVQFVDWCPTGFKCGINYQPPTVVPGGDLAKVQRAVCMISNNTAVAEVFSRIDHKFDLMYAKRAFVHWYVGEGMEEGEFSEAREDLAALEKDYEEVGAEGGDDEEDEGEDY
T7 sequence (Q56WH1 whole entry): as the sequence (B9DHQ0 whole entry) above
T1 sequence (P29516 whole entry): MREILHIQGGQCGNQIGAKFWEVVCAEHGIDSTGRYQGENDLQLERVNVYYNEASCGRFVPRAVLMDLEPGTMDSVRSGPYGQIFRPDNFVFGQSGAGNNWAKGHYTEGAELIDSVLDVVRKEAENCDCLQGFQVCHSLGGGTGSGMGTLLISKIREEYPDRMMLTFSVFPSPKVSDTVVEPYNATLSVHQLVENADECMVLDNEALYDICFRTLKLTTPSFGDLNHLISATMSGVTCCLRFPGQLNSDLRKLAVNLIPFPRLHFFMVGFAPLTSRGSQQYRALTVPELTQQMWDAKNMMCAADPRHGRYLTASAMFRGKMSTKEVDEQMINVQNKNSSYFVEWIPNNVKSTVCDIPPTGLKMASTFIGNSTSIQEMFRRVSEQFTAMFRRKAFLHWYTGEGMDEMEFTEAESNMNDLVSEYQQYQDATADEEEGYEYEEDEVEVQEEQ
T4 sequence (P29515 whole entry): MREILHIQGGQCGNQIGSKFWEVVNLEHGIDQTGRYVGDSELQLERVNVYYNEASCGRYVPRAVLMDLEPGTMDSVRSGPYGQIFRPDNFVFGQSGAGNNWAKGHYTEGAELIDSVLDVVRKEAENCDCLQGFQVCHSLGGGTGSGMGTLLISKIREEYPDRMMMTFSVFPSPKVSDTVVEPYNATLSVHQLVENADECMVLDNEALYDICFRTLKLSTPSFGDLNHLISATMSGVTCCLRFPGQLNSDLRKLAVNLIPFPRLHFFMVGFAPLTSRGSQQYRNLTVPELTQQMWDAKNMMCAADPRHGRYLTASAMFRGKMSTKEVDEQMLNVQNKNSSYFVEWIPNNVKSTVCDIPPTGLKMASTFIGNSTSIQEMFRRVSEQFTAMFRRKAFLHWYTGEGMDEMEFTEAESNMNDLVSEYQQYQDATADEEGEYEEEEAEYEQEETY
T8 sequence (P24636 whole entry): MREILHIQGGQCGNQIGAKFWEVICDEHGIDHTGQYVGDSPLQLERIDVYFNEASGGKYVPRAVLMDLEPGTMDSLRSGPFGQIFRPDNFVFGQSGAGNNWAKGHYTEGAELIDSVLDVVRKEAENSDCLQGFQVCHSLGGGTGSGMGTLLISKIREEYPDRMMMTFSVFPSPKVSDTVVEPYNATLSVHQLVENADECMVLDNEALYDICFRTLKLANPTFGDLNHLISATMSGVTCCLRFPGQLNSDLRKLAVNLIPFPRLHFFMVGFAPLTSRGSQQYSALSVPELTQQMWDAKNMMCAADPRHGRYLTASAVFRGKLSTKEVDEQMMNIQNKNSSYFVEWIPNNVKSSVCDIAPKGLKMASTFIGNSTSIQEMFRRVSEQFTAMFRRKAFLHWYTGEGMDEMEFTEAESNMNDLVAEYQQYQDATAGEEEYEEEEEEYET
T2 sequence (P11139 whole entry): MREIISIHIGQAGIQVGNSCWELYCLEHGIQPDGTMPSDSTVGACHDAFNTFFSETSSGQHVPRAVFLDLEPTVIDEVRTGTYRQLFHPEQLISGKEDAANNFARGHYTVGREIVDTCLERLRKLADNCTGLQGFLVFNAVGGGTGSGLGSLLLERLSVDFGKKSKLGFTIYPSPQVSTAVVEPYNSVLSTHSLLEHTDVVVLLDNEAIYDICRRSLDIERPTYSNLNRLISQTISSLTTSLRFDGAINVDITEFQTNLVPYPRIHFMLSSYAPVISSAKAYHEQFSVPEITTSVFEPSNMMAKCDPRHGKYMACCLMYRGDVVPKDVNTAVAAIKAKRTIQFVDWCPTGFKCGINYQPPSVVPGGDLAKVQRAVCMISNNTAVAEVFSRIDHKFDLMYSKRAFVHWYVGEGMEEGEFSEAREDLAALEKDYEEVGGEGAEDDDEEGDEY

B1: GST–BIN2 (BRASSINOSTEROID …2) (enzyme, Arabidopsis, UniProt Q39011 1-380, looked up)
chain: MADDKEMPAAVVDGHDQVTGHIISTTIGGKNGEPKQTISYMAERVVGTGSFGIVFQAKCLETGETVAIKKVLQDRRYKNRELQLMRVMDHPNVVCLKHCFFSTTSKDELFLNLVMEYVPESLYRVLKHYSSANQRMPLVYVKLYMYQIFRGLAYIHNVAGVCHRDLKPQNLLVDPLTHQVKICDFGSAKQLVKGEANISYICSRFYRAPELIFGATEYTTSIDIWSAGCVLAELLLGQPLFPGENAVDQLVEIIKVLGTPTREEIRCMNPHYTDFRFPQIKAHPWHKIFHKRMPPEAIDFASRLLQYSPSLRCTALEACAHPFFDELREPNARLPNGRPFPPLFNFKQEVAGSSPELVNKLIPDHIKRQLGLSFLNQSGT
notes: BRASSINOSTEROID …2 (BIN2), GSK3-like kinase of Arabidopsis, 380 aa; also called BIN2–GST; source: E. coli (Rosetta strain), purified using glutathione resin
binds: all assays above
